Reference: a protein production outcome set (Wang et al. 2014)

Assay: label from the status in PepcDB records

| Sequence | protein production |
| --- | --- |
| MAQFLRRFSSSPMANEDEFQSPVEPSQQQSQDCVSESYLIGFVIANIVGLKYYSGRINGREMVGLVREPLNVYDNNAIRVLNTRSEQVGHIERTVAAVLAPMIDSHTIVVEGIVPNTRSNSNRYRIPCQIHVFAKLEASSTVKSTISRGGLVLISESDTSFGLSEAVVVKEQMGNGDKRSVDKIFKLVDENVKLMGKLVAAEPPREVIKSELFAHQKEGLGWLLHREKSGELPPFWEEKDGEFLNTLTNYRSDKRPDPLRGGVFADDMGLGKTLTLLSLIAFDRYGNASTSTPTEEPLDGEGDKIEKKGKKRGRGKSSESVTRKKLKTDDVVGMNVSQKTTLIVCPPSVISAWITQLEEHTVPGILKVYMYHGGERTDDVNELMKYDIVLTTYGTLAVEESWEDSPVKKMEWLRIILDEAHTIKNANAQQSRVVCKLKASRRWAVTGTPIQNGSFDLYSLMAFLRFEPFSIKSYWQSLIQRPLGQGNKKGLSRLQVLMATISLRRTKEKSLIGLPPKTVETCYVELSPEERQLYDHMEGEAKGVVQNLINNGSLMRNYSTVLSIILRLRQLCDDMSLCPPELRSFTTSTSVEDVTDKPELLQKLVAALQDGEDFDCPICISPPTNIIITRCAHIFCRACILQTLQRSKPLCPLCRGSLTQSDLYNAPPPPPDSSNTDGEDAKSSTKSSKVSALLSLLMASRQENPNTKSVVFSQFRKMLLLLETPLKAAGFTILRLDGAMTVKKRTQVIGEFGNPELTGPVVLLASLKASGTGINLTAASRVYLFDPWWNPAVEEQAMDRIHRIGQKQEVKMIRMIARNSIEERVLELQQKKKNLANEAFKRRQKKDEREVNVEDVVALMSL | failed |
| MAQNPERRAALVNAAIEVLAREGARGLTFRAVDVEANVPKGTASNYFPSRDDLFDQVGKRIHERLGPDPSVVEESGRKPQNLELAIEYMQGLFGRITRDRTGYLALQELRLEAVRRPELRTTLTRTISENLKRDIGFHLDSGLPGDRSTVLMLYLAMNALIVEHLTLPGVLEGVDTERLVADLVTRAVATPDA | not failed |
| MAQREIRLVDNEYPSPSMTHPPIPLSDIALTGIFEISKILTSPARLEITLANVVNLLQSFLQMRNGVVSLLADDGVPDITVGVGWNEGSDNRYRARLPQKAIDQIVATAVPLVADNVSAHPMFTAADAMALGATDEIRVSFIGVPIRIDSRVVGTLSIDRVRDGRSHFRMDADVRFLTMVANLIGQTVKLHRVVARDRERLMAESHRLQKELS | failed |
| MAQSFLLMGALIQHHLKGEKADLLTPEKLLEAANKQGTVPSRVRYQWMEDEETGRLKAVGYHTSMESGRDQVRVRLLKHDFPNNRYEFWEEGATGPTILWTPDNPGIELPTDTAHGEQPVIPSAIPGLEIPEMDDVSILATPMPDEKDFRDYILVFPENAFPPIYVYLSKKIDTPIWLEHHHHHH | not failed |
| MAQVINEMDVPSHSFVFHGTGERYFLICVVNVLLTIITLGIYLPWALMKCKRYLYANMEVNGQRFSYGITGGNVFFSCLVFVFFYFAILMTVSADMPLIGCVLTLSLLVLLIFMAAKGLRYQALMTSLNGVRFSFNCSMKGVWWVTFFLPILMAIGMGTVFFISTKMLHANSSSSVIVSVVLMAIVGIVSIGIFNGTLYSLVMSFLWSNTSFGIHRFKVKLDTAYCIKYAILAFLALLPFLAVAGYIIFDQILNAYDSSVYANDDIENLQQFMEMQRKMIIAQLIYYFGIAVSTSYLTVSLRNHFMSNLSLNDGRIRFRSTLTYHGMLYRMCALVVISGITGGLAYPLLKIWMIDWQAKNTYLLGDLDDLPLINKEEQPDKGFLASISRGIMPSLPFL | failed |
| MAQYPEQLNGIFQALADPTRRAVLGRLSRGPATVSELAKPFDMALPSFMKHIHFLEDSGWIRTHKQGRVRTCAIEKEPFTAVEAWLAEQQELWESRTDRLEQFVTEHTVTAHAKATPQ | not failed |
| MAREFKRSDRVAQEIQKEIAVILQREVKDPRIGMVTVSDVEVSSDLSYAKIFVTFLFDHDEMAIEQGMKGLEKASPYIRSLLGKAMRLRIVPEIRFIYDQSLVEGMRMSNLVTNVVREDEKKHVEESN | not failed |
| MARIIRRPLNLTAAVRFRLSPLSPFSGNSGSINSETTSWSELIRVPSLVEGCDYKHWLVLMKPPNGYPTRNHIVQSFVETLAMALGSEEEAKRSIYSVSTKYYYAFGCRIHEPLTYKIRSLPDVKWVLPDSFIVDGDNRYGGEPFVDGEVVPYDEKYHADWLRDQTDEDAKSGVVKKKHRRKRKKKLI | failed |
| MARLILERFLQEHEETPPSKSIINSMLRDPSQIPDGVLANQVYQCIVNDCCYGPLVDCIKHAIGHEHEVLLRDLLLEKNLSFLDEDQLRAKGYDKTPDFILQVPVAVEGHIIHWIESKASFGDECSHHAYLHDQFWSYWNRFGPGLVIYWYGFIQELDCNRERGILLKACFPTNIVTLCHSIA | failed |
| MARPSGPATMRTTDGGPMRDIDWLLTDAHALRERGELDPARALYDEALEKARATGETEGLAKALRHVSDMDREAGRLEAALAAAEEAATLYGALGREHRLDLANALRLTALALEALGRPALQPWREAGDLYAELDIAAGLAEAERHLGLVVRPAQSVELEPLARLWWQGWRDAHLPIVPEALARLRTLESFTTRMAAALPQVRVLGPVGAPIGLHLIKDDELNQLYLAAEARGAGFAAVLMADAEAHLADAGVRKAWLACAIGNDRAARFYEKSGWTRARAEIVPTETPAGPFPLEVWRYEKVLTRSEPQTL | failed |
| MARREICNKGVVAGVQYSHSHRQSKRTWAPNIKKVKAIVKGTPKTVHVCTRCLRSEKFKELYKKSLAKMQFNNCIFILHKNKGLEHHHHHH | not failed |
| MARSKVKNLLLLKQIHSAVSQIKKGKLDKALETLDKAETSARQSKSTDALYYILFTRGGILYSAKEYDQALEAYEKALEAGSDLLKTDPENADYQHYMGTTLSNTGNLLKKKSEIDKADEYYSQARKIYFDLIKKDPQNAVYQSYAGENLNNYGELLMESGSLEKACEILREAIEIYEKLYKEKPDNLGYQAELSVALSQLGGCLKHQVPEESGAAKEKLEKALELQESLLDQQPENEKVKEAIALTEERLKGL | failed |
| MARTLFLEEGPMFFEKIAPYTYRIPRQGKMRVDAVFFASKEILKDLEAENYASLQQLMNVATLPGIVEPALAMPDIHWGYGFPIGGVAAFDPEEGGVVSPGGVGFDINCGVRLLASHLTLEDLLPRQKELADALYRLVPSGVGSERRDVRFSKRELKEILKEGAGWLVKRGYGYPEDVRFIESQGRLPWANPDKVSERAFERGAPQIGTLGSGNHFLEVQYVDEVYDEEAALAFGLFKGQVTVLIHTGSRGLGHQVCQDYVERFLKVAPRYGIELVDKQLAAAPIKSPEGQDYLQAMAAAANFAFANRQLIAHFVREAFEKVGFTPRDHGLRVLYDLAHNNAKFEEHRGRRVLVHRKGATRAFGPGHPEVPEEYRRVGQPVLVPGDMGRYSYVLAGTEKAMEVSFGSSCHGAGRKMSRHQAKKVARERNLVKELAERGILVRAATRATVDEEMPEAYKDVSLVVEAVEGAGIGKKVARLRPLIVVKG | not failed |
| MARVVVDAQAARAIGKGAMIVFKKGVVRVEGDIKPGDIVEVYTRGGKFLGKGFANPNSNIMVRIVTKDKDVEINKDLFKRRIKKANEYRKKVLKYTNVYRMVYGEADYLPGLIVDRFNDIASLQISSAGMERFKLDVAEAIMEVEPGIETVFEKNTGRSRRREGLPEIERVLLGKEKYRTIIQEGRAKFIVDMRGQKTGFFLDQRENRLALEKWVQPGDRVLDVFTYTGGFAIHAAIAGADEVIGIDKSPRAIETAKENAKLNGVEDRMKFIVGSAFEEMEKLQKKGEKFDIVVLDPPAFVQHEKDLKAGLRAYFNVNFAGLNLVKDGGILVTCSCSQHVDLQMFKDMIIAAGAKAGKFLKMLEPYRTQAPDHPILMASKDTEYLKCLFLYVEDMR | not failed |
| MARYLVVAHRTAKSPELAAKLKELLAQDPEARFVLLVPAVPPPGWVYEENEVRRRAEEEAAAAKRALEAQGIPVEEAKAGDISPLLAIEEELLAHPGAYQAIVLSTLPPGPSRWLRLDVHTQAERFGLPVIHVIAQAA | not failed |
| MASDSGNQGTLCTLEFAVQMTCQSCVDAVRKSLQGVAGVQDVEVHLEDQMVLVHTTLPSQEVQALLEGTGRQAVLKGMGSGQLQN | not failed |
| MASEQEKTADFGFRTVAKDEKEVMVAEVFHSVAAKYDLMNDLMSFGIHRIWKRFTIECSGVRRNQRVLDLAGGTGDLTAKFSRMVGEGGEVILADINASMLKVGREKLRNKGIIDNINYVQANAEALPFPDDFFDCITISFGLRNVTDKNKALRSMYRVLKPGGRLLVLEFSKPVIKQLSTIYDAYSFHILPRIGEAVASDAGSYRYLAESIRMHPDQETLKGMMSDAGFDSVNYFNLTGGIVALHRGFKFLEHHHHHH | failed |
| MASFYWRIKNEPYQVVECAMRALHFSSRHNKDIALVNLANVLHRAHFPADAAVVVHAALDDSDFFTSYYTLGNIYAMLGEYNHSVLCYDHALQARPGFEQAIKRKHAVLCQQKLEQKLEAQHRSLQRTLNELKEYQKQHDHYLRQQEILEKHKLIQEEQILRNIIHETQMAKEAQLGNHQICRLVNQQHSLHCQWDQPVRYHRGDIFENVDYVQFGEDSSTSSMMSVNFDVQSNQSDINDSVKSSPVAHSILWIWGRDSDAYRDKQHILWPKRADCTESYPRVPVGGELPTYFLPPENKGLRIHELSSDDYSTEEEAQTPDCSITDFRKSHTLSYLVKELEVRMDLKAKMPDDHARKILLSRINNYTIPEEEIGSFLFHAINKPNAPIWLILNEAGLYWRAVGNSTFAIACLQRALNLAPLQYQDVPLVNLANLLIHYGLHLDATKLLLQALAINSSEPLTFLSLGNAYLALKNISGALEAFRQALKLTTKCPECENSLKLIRCMQFYPFLYNITSSVCSGNCHEKTLDNSHDKQKYFDNSQSLDAAEEEPSERGTEEDPVFSVENSGRDSDALRLESTVVEESNGSDEMENSDETKMSEEILALVDEFQQAWPLEGFGGALEMKGRRLDLQGIRVLKKGPRDGVARSSCYGDCRSEDDEATEWITFQVKRVKKPKGDHKKTPGKKVETGQIENGHRYQANLEITGPKVASPGPQGLLDWKTRKVP | failed |
| MASGQFVNKLQEEVICPICLDILQKPVTIDCGHNFCLKCITQIGETSCGFFKCPLCKTSVRKNAIR | not failed |
| MASGSTQVKYLGIYQKMKQQILDGEYKINEKIPSSPVLAEEFDVSVLTIKKALDLLVRDGYIIRRRGSGTVVQDWRQQEKARMIQTLTGTKAVYGSEVESKIIEFTIVGADEIIAEKLGISVGDFVYKIIRLRIIHSIPTIMEHTWMPISVIPGVEVSVLEESIYSHIQNKLGLQVGTSVVRVKGIRPDDKEKQFMNLTNQDFLMRVEQVAYLTDGRTFEYSYADHLPETFEFETVITAKSYKEA | not failed |
| MASKMDTETHYSDVWVVIPAFNEAAVIGKVVTDVRSVFDHVVCVDDGSTDGTGDIARRSGAHLVRHPINLGQGAAIQTGIEYARKQPGAQVFATFDGDGQHRVKDVAAMVDRLGAGDVDVVIGTRFGRPVGKASASRPPLMKRIVLQTGARLSRRGRRLGLTDTNNGLRVFNKTVADGLNITMSGMSHATEFIMLIAENHWRVAEEPVEVLYTEYSKSKGQPLLNGVNIIFDGFLRGRMPR | failed |
| MASKPEKRVASSVFITLAPPRRDVAVSEEVGQAACEARRARPWEMLPTKTPGAAVGRSPKTWTPSGKTNASLSGVTPQLSNGGCSLPPPSLNEEDLDLPPPPPPPSAYLPLPEEEPPVLPGKSLISDLEQLHLPPPPPPPPPQAPSKGSSVHPPPGHAIPSEEELPPPPEEPVTLPEREVSTDVCGFCHKPVSPRELAVEAMKRQYHAQCFTCRTCRRQLAGQRFYQKDGRPLCEPCYQDTLEKCGKCGEVVQEHVIRALGKAFHPPCFTCVTCARCISDESFALDSQNQVYCVADFYRKFAPVCSICENPIIPRDGKDAFKIECMGRNFHENCYRCEDCSVLLSVEPTDQGCYPLNDHLFCKPCHLKRSAAGCC | failed |
| MASKSQKKVLKKQNKKKKKDPLAPKRALSAYMFYVKDKRLEIIKEKPELAKDVAQVGKLIGEAWGQLSPAQKAPYEKKAQLDKVRYSKEIEEYRKKNQE | failed |
